Data from PMC6494882, “Inhibition of MYC by the SMARCB1 tumor suppressor”.

Target: MAX:MAX (UniProt P61244 1-160)
Test: EMSA; no SNF5; 15 mM Tris-HCl pH 7.9, 15% glycerol, 100 mM KCl, 0.15 mM EDTA, 0.075% NP-40, 7.5 mM 2-mercaptoethanol, 40 ng poly(dI-dC), 375 ng/ul BSA, 25 fmol probe, 10-15 ul, 30 min, room temperature; SUMO-BAF155(533-580) added to equalize total protein in SNF5 experiments
Conditions: protein: recombinant; tags: 6xHis; chain copies: 2; label: 3'-biotin

MAX:MAX, sequence (P61244 whole entry): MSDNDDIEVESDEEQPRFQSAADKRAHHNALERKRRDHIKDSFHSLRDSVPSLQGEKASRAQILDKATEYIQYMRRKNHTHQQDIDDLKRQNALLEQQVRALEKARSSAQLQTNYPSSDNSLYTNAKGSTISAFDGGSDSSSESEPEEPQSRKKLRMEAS

B1: wild-type E-box probe (dsDNA)
DNA 1: GCTCAGGGACCACGTGGTCGGGGATC
DNA 2: GATCCCCGACCACGTGGTCCCTGAGC
binding result: binds
